Test system: MS2 coat protein
Assay: apparent KD of MS2 coat protein; designed switch direction (-1 OFF switch, 1 ON switch): -1; higher = weaker reporter binding
How it was run: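 Designed RNA switches sharing common flanks were transcribed on Illumina chips by stalled E. coli RNA polymerase. They were titrated with SNAP-549-labelled MS2 coat protein, from 0.7 or 1.5 nM doubling to 3 µM, in Tris-HCl pH 7.5 buffer with KCl, MgCl2, BSA, DTT, tRNA and Tween-20. Titrations ran without input, with 200 uM small-molecule ligand, or with an oligonucleotide input. The apparent KD of each design is the median over its clusters, after curve-fitting of normalised cluster fluorescence.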

[1] = Eterna round: R95, input ligand: FMN 200 uM
[2] = Eterna round: R95, input ligand: microRNA oligo, concentration not stated
[3] = Eterna round: R95, input ligand: none
[4] = input ligand: microRNA oligo, concentration not stated

For “CAUUAUGUUGAGGAUAUGCGCCGGAAAACUGACGCAGAAGGCGACACAUGAGGAUCACCCAUGUCAGUUUUCGA [salish99_ex6_r004_426] (Eterna round: R97, puzzle: Exclusion 6)”, the “apparent KD of MS2 coat protein” value (input ligand: FMN 200 uM) was 136 nM and the “apparent KD of MS2 coat protein” value (input ligand: none) was 273 nM.

“GGUCAAGAACAGCUCCGCGCUGCCCUCGACCGCUCAUUUACAUGAGGAUCACCCAUGUUUUUUGCUUGUCUUGUUAC [Usvetive] (puzzle: Sensor v3, turn-off variant 2)” was tested, and the “apparent KD of MS2 coat protein” value [1] was 16.9 nM, the “apparent KD of MS2 coat protein” value [2] was 91.8 nM and the “apparent KD of MS2 coat protein” value [3] was 16.5 nM.

For “UUUAGUUCAGGAUAUGUAGACAUUAACAUGAGGAUCACCCAUGUAGAUCCUGAAUUGACUACAGAAGGGAGCAUUU [Mod of Brourd 9 - Jieux - Exclusion 5] (Eterna round: R97, puzzle: Exclusion 5)”, the “apparent KD of MS2 coat protein” value (input ligand: FMN 200 uM) was 88.9 nM and the “apparent KD of MS2 coat protein” value (input ligand: none) was 23.9 nM.

With “UAGCAUUGCCUUUGGUAGUGCCUUACAUGAGGAUCACCCAUGUAGGAUAUGGUAGGCUUUGCUUACCAGAAGGACAUGGUAAUU [JL ENG3 1.06] (Eterna round: R96, puzzle: Exclusion NG 3)” the “apparent KD of MS2 coat protein” value [4] was 54.1 nM.

For “CCAGCGUAUGUGAGGAUAUGCUGGUCCUUGGAUCAGCAGAAGGCACAUGAGGAUCACCCAUGUGGAAAAGUUGG [Mod of JL 23 - Jieux - Brourd's mod of Exclusion 4] (Eterna round: R97, puzzle: Brourd's mod of Exclusion 4)”, the “apparent KD of MS2 coat protein” value (input ligand: FMN 200 uM) was 164 nM and the “apparent KD of MS2 coat protein” value (input ligand: none) was 27.3 nM.

For “CGAACCCGAGGAUAUCGUAAACCCGACAUGAGGAUCACCCAUGUCAUCCUCACGGCGCCACGAGAAGGCGGUGUUU [Leinat] (puzzle: Exclusion 5)”, the “apparent KD of MS2 coat protein” value [2] was 43.7 nM.

With “AUUAGAUGAGGAUAUACAUGGUUGCGGGUGCGGCAGGAUCUACAUGAGGAUCACCCAUGUAGAAGGCAUGUAUC [EX2 C.22] (Eterna round: R97, puzzle: Exclusion 2)” the “apparent KD of MS2 coat protein” value (input ligand: FMN 200 uM) was 16.3 nM and the “apparent KD of MS2 coat protein” value (input ligand: none) was 13.8 nM.

For “UGAGUGCUGCGAGGAUAUACAUGAGGAUCACCCAUGUUUUCGUGUGAGGCUUUGCCUCACACGAAGUAGAAGGCGCAGUACUCU [JL ENG2 1.12] (Eterna round: R96, puzzle: Exclusion NG 2)”, the “apparent KD of MS2 coat protein” value (input ligand: FMN 200 uM) was 10.8 nM, the “apparent KD of MS2 coat protein” value [4] was 11.8 nM and the “apparent KD of MS2 coat protein” value (input ligand: none) was 12.3 nM.

With “UUCUUUAUACGAGGAUAUCAUACAUGAGGAUCACCCAUGUGGCUGGGUCUGUUUUUAUAUAAUAUUGAGAAGGCGUUUUGCUAU [JR_ExcNG2_Sub072] (Eterna round: R96, puzzle: Exclusion NG 2)” the “apparent KD of MS2 coat protein” value (input ligand: FMN 200 uM) was 223 nM, the “apparent KD of MS2 coat protein” value [4] was 70.5 nM and the “apparent KD of MS2 coat protein” value (input ligand: none) was 80.9 nM.

With “CUUCACCCACUAGAGCUCACCCACAAACCUACUCUAGUGACAUGAGGAUCACCCAUGUUUUUUGCCCGUCUUAUCUU [Qugeenerce] (puzzle: Sensor v3, turn-off variant 2)” the “apparent KD of MS2 coat protein” value [1] was 40.2 nM, the “apparent KD of MS2 coat protein” value [2] was 184 nM and the “apparent KD of MS2 coat protein” value [3] was 41.4 nM.

For “UUGUAACAUGAGGAUCACCCAUGUGAGGAUAUGGCCCGCCCGGCGUGAGCUGGUUUUGUCAGAAGGCGCAUAGG [salish99_ex1_r4_022] (Eterna round: R97, puzzle: Exclusion 1)”, the “apparent KD of MS2 coat protein” value (input ligand: FMN 200 uM) was 158 nM and the “apparent KD of MS2 coat protein” value (input ligand: none) was 49.9 nM.

In the case of “CUGGUUGUCGAGGAUAUGCACCGGCUCGCUGACGCAGAAGGCGACACAUGAGGAUCACCCAUGUCGGUUCGCGU [salish99_ex6_r004_438] (Eterna round: R97, puzzle: Exclusion 6)”, the “apparent KD of MS2 coat protein” value (input ligand: FMN 200 uM) was 29 nM and the “apparent KD of MS2 coat protein” value (input ligand: none) was 19.1 nM.

“GUCAGCUCGUGAGGAUAUACAUGCGUGCUUCGGCACGAAUUUAAGAUCACAUGAGGAUCACCCAUGUAGAAGGCACGAGCUGAC [ENG2/3-A1] (Eterna round: R96, puzzle: Exclusion NG 2)” was tested, and the “apparent KD of MS2 coat protein” value (input ligand: FMN 200 uM) was 137 nM, the “apparent KD of MS2 coat protein” value [4] was 472 nM and the “apparent KD of MS2 coat protein” value (input ligand: none) was 591 nM.

“UUUAAUUUUUUUUUUUUACAAGCUUUUUGCUCGUCUUAUACAUGAGGAUCACCCAUGUGGGUAAAGGAUAAAUUAUC [JMF 25] (puzzle: Sensor v3, turn-off variant 2)” was tested, and the “apparent KD of MS2 coat protein” value [1] was 31.6 nM, the “apparent KD of MS2 coat protein” value [2] was 39.1 nM and the “apparent KD of MS2 coat protein” value [3] was 34.1 nM.
